Reference: publication PMC6076269, “Structure and nucleic acid binding properties of KOW domains 4 and 6–7 of human transcription elongation factor DSIF”

B1: dsDNA1 (dsDNA)
DNA 1: CTTATTGAATTA
DNA 2: TAATTCAATAAG
B2: dsDNA2 (dsDNA)
DNA 1: GAAAATTGGGTAAG
DNA 2: CTTACCCAATTTTC

Biological target: hSpt5 KOW4 (S522-G647) (Homo sapiens, UniProt O00267 522-647)
Assay: fluorescence anisotropy; 50 nM nucleic acid; Fluorescence anisotropy: 25 mM Tris/HCl pH 7.0, 50 mM NaCl, 25 C (buffer printed for duplex annealing, named fluorescence buffer); NMR with Rpb4/7 (Fig 7): 50 mM Na phosphate pH 7.0, 50 mM NaCl, 1 mM DTT, 298 K
Conditions: protein: recombinant, tags: His6-GB1 removed by TEV
[1] = label: 5' 6-FAM on strand 1, blunt

Binder | Kd (label: 5' 6-FAM) [µM] | Kd [1] [µM]
CTTATTGAATTA (ssDNA) [ssDNA1] | 12.2 ± 0.6 | –
B1 | – | 20.1 ± 0.4
GAAAATTGGGTAAG (ssDNA) [ssDNA2] | 24.5 ± 3.2 | –
B2 | – | 41.2 ± 9
GGCGGUAGCGUG (ssRNA) [ssRNA] | 39.5 ± 7.4 | –
